Data set [1] concerns the molecule itself. Kind of data set: cryo-EM structure; single-particle cryo-EM at 200 kV (JEM2200FS); purified particles suspended in DMEM; icosahedral reconstruction.
Data set [2] deals with the molecule itself. Kind of data set: cryo-EM structure; single-particle analysis (RELION) of MNoV-1 VLPs stored in DMEM; three types of particles reconstructed.

B1: VP1 capsid protein of murine norovirus type 1 (MNoV-1), as the capsid of infectious particles (natural protein)
chain: MRMSDGAAPKANGSEASGQDLVPAAVEQAVPIQPVAGAALAAPAAGQINQIDPWIFQNFVQCPLGEFSISPRNTPGEILFDLALGPGLNPYLAHLSAMYTGWVGNMEVQLVLAGNAFTAGKVVVALVPPYFPKGSLTTAQITCFPHVMCDVRTLEPIQLPLLDVRRVLWHATQDQEESMRLVCMLYTPLRTNSPGDESFVVSGRLLSKPAADFNFVYLTPPIERTIYRMVDLPVIQPRLCTHARWPAPVYGLLVDPSLPSNPQWQNGRVHVDGTLLGTTPISGSWVSCFAAEAAYKFQSGTGEVATFTLIEQDGSAYVPGDRAAPLGYPDFSGQLEIEVQTETTKTGDKLKVTTFEMILGPTTNADQAPYQGRVFASVTAAASLDLVDGRVRAVPRSIYGFQDTIPEYNDGLLVPLAPPIGPFLPGEVLLRFRTYMRQIDTADAAAEAIDCALPQEFVSWFASNAFTVQSEALLLRYRNTLTGQLLFECKLYNEGYIALSYSGSGPLTFPTDGIFEVVSWVPRLYQLASVGSLATGRMLKQ
notes: also called MNoV-1 infectious particles; MNoV-1 particles; copies: 180
For B1, the binding result in data set [1] was “binds”.

B2: VP1 capsid protein of murine norovirus type 1 (MNoV-1), as virus-like particles (natural protein, UniProt Q80J94 1-541, looked up)
chain: B1 chain
notes: Major capsid protein VP1 of murine norovirus type 1 (MNoV-1); Formed three types of particles: one large (T = 4) and two small (T = 3, resting and rising P domain conformations), so no single copy number; also called MNoV-1 VLPs; VLPs of MNoV-1; source: baculovirus expression system, purified (CsCl equilibrium ultracentrifugation), stored in DMEM
Take B2: the binding result in data set [2] is “binds”.

The record behind these values is PMC7331980, “Dynamic rotation of the protruding domain enhances the infectivity of norovirus” (PLoS Pathogens, 2020).
